# From patent US20240294963
# Key:
# [1] = tested on: T1, peptide with the sequence TNYS found in IFNγ
# T1 sequence: TNYS
# Interferon-gamma (IFNγ) = Interferon-gamma (IFNγ) (UniProt P01579)
# [2] = tested on: T2, peptide with the YNST sequence from Fc
# T2 sequence: YNST
# [3] = tested on: constant region (Fc) of a human immunoglobulin antibody (IgG1) [IgG part: P01857]
# [4] = tested on: T3, peptide with the LNLS sequence from GM-CSF
# T3 sequence: LNLS
# [5] = target: Granulocyte-Macrophage Colony-Stimulating Factor (GM-CSF) (UniProt P04141)
# Granulocyte-Macrophage Colony-Stimulating Factor (GM-CSF), sequence (P04141 18-144): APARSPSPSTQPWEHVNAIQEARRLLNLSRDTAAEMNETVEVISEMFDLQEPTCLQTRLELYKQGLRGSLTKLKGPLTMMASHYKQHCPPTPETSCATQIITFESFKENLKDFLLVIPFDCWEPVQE
# Interferon-gamma (IFNγ), sequence (P01579 24-166): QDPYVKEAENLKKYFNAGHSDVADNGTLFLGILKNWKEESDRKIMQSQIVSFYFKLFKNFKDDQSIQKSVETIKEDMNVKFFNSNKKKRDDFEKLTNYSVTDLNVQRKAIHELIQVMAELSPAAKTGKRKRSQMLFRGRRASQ
substance,measurement,setting,value
ApQ mutant A469I,"peptide modification (glycosylation), SAMDI-MS",[1],the purified A469I mutant glycosylated the sequence TNYS found in IFNγ more efficiently than did ApQ
same,"protein modification (glycosylation), LC-qTOF of tryptic peptides",Interferon-gamma (IFNγ),"increase the modification of the therapeutic proteins IFNγ GM-CSF, and Fc using the A469I, T438S, and H495D mutants of ApQ, respectively"
ApQ mutant H495D,"peptide modification (glycosylation), SAMDI-MS",[2],H495D glycosylated the YNST sequence from Fc more efficiently than did ApQ
same,"modification of Fc relative to ApQ, 2 µM H495D added before CFPS",[3],significantly increased the modification of Fc to 60% or by 1.3-fold
same,"modification of Fc, 2 µM H495D added before CFPS",[3],significantly increased the modification of Fc to 60% or by 1.3-fold
same,"modification of Fc, 5 µM H495D during CFPS",[3],80% modification of Fc could be achieved
ApQ mutant T438S,"peptide modification (glycosylation), SAMDI-MS",[4],T438S glycosylated the LNLS sequence from GM-CSF more efficiently than did ApQ
same,"protein modification (glycosylation), LC-qTOF of tryptic peptides",[5],"increase the modification of the therapeutic proteins IFNγ GM-CSF, and Fc using the A469I, T438S, and H495D mutants of ApQ, respectively"
Q469A mutant of Actinobacillus pleuropneumoniae N-glycosyltransferase (ApNGT),"protein modification (glycosylation), LC-qTOF of tryptic peptides",Interferon-gamma (IFNγ),"ApQ showed no detectable modification of IFNγ (marked as ""ND"")"
same,"glycosylation efficiency of Fc, 2 µM ApQ added after CFPS",[3],the glycosylation efficiency of Fc was increased from 15% to 46%
same,"glycosylation efficiency of Fc, 2 µM ApQ added before CFPS",[3],the glycosylation efficiency of Fc was increased from 15% to 46%
